Source: the RNAGym collection of RNA variant scans (doi:10.7554/elife.80360)

B1: Hairpin Ribozyme (parent)
chain: GUCCUCUUUCACGUGCGCGUGAAAGAGAGAAGUGAACCAGAGAAACACACGUUGUGGUAUAUUACCUGGUA

Variants of: B1
Assay: self-cleavage, relative activity (ratio to wild type); higher = more cleavage; co-transcriptional

Variant | self-cleavage
G54U U60C | 0.834
G29C C38G | 0.122
U7G C50A | 0.167
A28U G69C | 0.219
C16U A24C | 1.12
U9A G34U | 1.19
C16U U55C | 0.251
A35C C46U | 0.221
A47C U58G | 0.172
G17U U55A | 0.142
G57A A71U | 0.187
C10U G57U | 0.239
C10U A36U | 0.487
A26G G54U | 0.349
G27U U55A | 0.152
A11G A24G | 0.792
G17U A35C | 1.03
A30U U62G | 0.108
A26C C50A | 0.117
G27C A64G | 0.186
U14A U55G | 0.179

Variant | self-cleavage
C6A G69A | 0.23
G40U G54U | 0.096
G27C U53C | 0.318
G34A U52C | 0.857
U7A C10A | 0.736
G13A G57A | 0.175
A41G G51U | 0.552
G13U G29U | 0.147
G42C U70C | 0.233
A35G A43G | 0.082
U5C U55A | 0.21
G40C G68C | 0.0987
C6A G29C | 0.123
U2G G32C | 0.155
A43C U58G | 0.262
G15U A47U | 0.215
C10A U14C | 0.888
G29C C66G | 0.137
A22C A43U | 0.15
A23C A28C | 0.349
U14C U53A | 1.18

Variant | self-cleavage
C4A A43G | 0.0748
C65G G68C | 0.151
U5A G25A | 0.106
A36C U52C | 0.556
C38U A45G | 0.197
A31C A45C | 0.0871
G19C C38A | 0.174
G34C A61U | 1.24
G27U G32C | 0.129
U7C G54A | 0.525
C46G U58C | 0.308
A35G G68A | 0.309
A49U C50U | 0.139
G51U G68C | 0.274
U33G A49U | 0.218
G15C U60G | 0.466
U60C A71G | 1.08
A39U U60C | 0.378
G13A A41C | 1.04
A31U G42A | 0.0839
A36G U63G | 0.3

Variant | self-cleavage
U2A C46A | 0.143
C50A U62G | 0.177
A45C C50U | 0.0931
U5A G40C | 0.159
G51U G69A | 0.457
G17U C38A | 0.136
A43G A61C | 0.0791
A41U G54C | 0.891
U5C U58G | 0.318
G21U U53C | 0.85
C50U A59C | 0.166
G56C U63A | 0.0712
U7C A35G | 0.931
C3G U9A | 0.112
A23G A43C | 0.169
G21U G56C | 0.116
U20A U33C | 0.186
U5C G29U | 0.114
U7A U62C | 0.222
C6A G68C | 0.13
